{
  "source": "paper PMC6289173",
  "origin": "cited, not measured here",
  "biological_target": "endophilin (UniProt O35179)",
  "data": [
    {"substance": "endophilin (from UniProt O35179)", "values": [
      {"measurement": "Kd", "value": 10, "unit": "µM"}
    ]}
  ]
}
